Assay [1] has as its target T1, rat parathyroid hormone receptor (PTHR) (rat, UniProt P25961 27-591).
T1 construct: Endogenous in ROS17/2.8 cells (membranes or intact cells); also called rat PTHR; rat PIR
T1 sequence: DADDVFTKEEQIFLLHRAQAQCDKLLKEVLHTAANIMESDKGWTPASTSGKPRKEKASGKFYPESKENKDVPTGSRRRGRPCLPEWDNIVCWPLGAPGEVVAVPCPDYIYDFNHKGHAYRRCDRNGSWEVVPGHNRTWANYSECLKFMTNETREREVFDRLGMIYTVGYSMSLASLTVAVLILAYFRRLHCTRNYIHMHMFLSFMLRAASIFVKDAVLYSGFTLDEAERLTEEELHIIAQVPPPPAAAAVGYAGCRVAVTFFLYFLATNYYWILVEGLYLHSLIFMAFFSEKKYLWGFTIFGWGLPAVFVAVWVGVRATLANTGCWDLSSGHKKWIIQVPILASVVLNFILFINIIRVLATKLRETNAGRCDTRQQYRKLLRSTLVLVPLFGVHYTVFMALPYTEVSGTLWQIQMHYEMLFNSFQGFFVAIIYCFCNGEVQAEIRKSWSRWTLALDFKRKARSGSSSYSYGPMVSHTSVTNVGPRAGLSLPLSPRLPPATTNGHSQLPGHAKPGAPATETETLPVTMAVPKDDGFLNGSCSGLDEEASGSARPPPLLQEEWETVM
The assay is described as follows: competition radioligand binding, rat PIR RG.

The target of assay [2] is T1, rat parathyroid hormone receptor (PTHR). The assay is described as follows: competition radioligand binding, rat PIR R0.
The next assay concerns the target PTHR-CFPIC3/YFPCT (human). The assay can be described thus: cell-based or functional assay.
The target in assay [3] is T1, rat parathyroid hormone receptor (PTHR). The assay can be described thus: near-equilibrium radioligand binding, ROS17/2.8 membranes.
The target of assay [4] is T2, human parathyroid hormone receptor (PTHR) (human, UniProt Q03431 27-593).
T2 sequence: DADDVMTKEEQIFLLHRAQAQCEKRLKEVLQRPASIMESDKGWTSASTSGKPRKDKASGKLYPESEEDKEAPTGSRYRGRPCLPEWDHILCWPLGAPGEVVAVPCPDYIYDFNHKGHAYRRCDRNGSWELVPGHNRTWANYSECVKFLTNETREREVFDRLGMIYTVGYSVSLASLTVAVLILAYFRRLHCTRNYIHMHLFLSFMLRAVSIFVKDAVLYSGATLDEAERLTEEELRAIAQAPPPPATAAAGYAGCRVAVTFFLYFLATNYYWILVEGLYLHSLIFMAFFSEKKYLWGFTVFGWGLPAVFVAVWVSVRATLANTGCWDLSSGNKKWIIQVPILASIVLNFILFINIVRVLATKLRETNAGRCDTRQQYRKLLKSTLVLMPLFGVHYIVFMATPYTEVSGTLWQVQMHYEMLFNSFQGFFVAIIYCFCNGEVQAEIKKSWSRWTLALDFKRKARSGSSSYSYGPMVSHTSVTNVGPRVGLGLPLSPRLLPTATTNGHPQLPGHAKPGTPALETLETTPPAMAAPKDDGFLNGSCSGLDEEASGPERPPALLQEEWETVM
The assay can be described thus: cell-based or functional assay.

The target in assay [5] is T2, human parathyroid hormone receptor …. The assay can be described thus: cell-based or functional assay. This is another data set of the same source.
Assay [6] has the same target. The assay can be described thus: ratio of R0 IC50 to RG IC50, hPTHR.
Assay [7] has the same target. The assay is described as follows: ratio of R0 IC50 to RG IC50, human PTH1 receptor.
Assay [8] shares this target. The assay can be described thus: competition radioligand binding, human PTH1 receptor R0. As for the experimental part: (§1) Binding Studies. Binding studies were performed using cell membranes as described (Dean et al., Mol Endocrinol 20(4):931-43 (2006)). […] Reactions contained a total membrane protein concentration of 20 to 100 μg/mL, and a total radioactivity concentration of approximately 150,000 cpm/ml. Unlabeled peptide ligands and/or GTPγS (Sigma-Aldrich Inc. St. Louis, Mo.) were added to the reactions as indicated. At the end of the reaction, bound and free radioligand were separated by vacuum filtration using a 96-well vacuum filter plate and vacuum filter apparatus (Multi-Screen system with Durapore HV, […] filters; Millipore Corp., Milford, Mass.); the air-dried filters were then detached from the plate and counted for gamma radioactivity using a gamma counter.
(§2) To assess the capacities of various unlabeled peptide ligands to bind to the G protein-uncoupled and G protein-coupled PTHR conformations (R⁰ and RG, respectively), membranes were prepared from transiently transfected COS-7 cells and the following assay conditions.

Assay [9] has the same target. The assay is described as follows: competition radioligand binding, human PTH1 receptor RG. How it is done: as §1, §2
Assay [10] shares this target. The assay can be described thus: cell-based or functional assay. This is another data set of the same source.
Assay [11] shares this target. The assay is described as follows: competition vs 125I-[Aib1,3,M]PTH(1-15), COS-7 membranes hPTHR + GsND (RG). How it is done: (§3) Radioligand dissociation. These studies were performed as bulk reactions in 15 mL round-bottom polystyrene snap-cap tubes (Falcon) (total reaction volume=5.0 ml). Membranes and radioligand were pre-incubated for 90 minutes to allow complex formation; the dissociation phase was then initiated by the addition of an excess of the unlabeled analog of the radioligand (5×10⁻⁷ M final concentration), with or without GTPγS (5×10⁻⁵ M). Immediately prior to this addition (t=0), and at successive time-points thereafter, 0.2 ml aliquots (30,000 cpm) were withdrawn and immediately processed by vacuum filtration, as described above. Non-specific binding was determined in parallel reaction tubes containing the unlabeled analog of the radioligand (5×10⁻⁷ M) in both the pre-incubation and dissociation phases. The specifically bound radioactivity at each time point was calculated as a percent of the radioactivity specifically bound at t=0. Equilibrium competition binding and GTPγS inhibition. […] Membranes, tracer radioligand, and various concentrations of unlabeled ligands and/or GTPγS were incubated in the wells for 90 minutes, following which, the reaction plates were processed by rapid vacuum filtration to separate bound from free radioligand, as described above. […] For both radioligands, the non-specific binding was determined in reactions containing a saturating concentration of the unlabeled analog of the radioligand. The specifically bound radioactivity was calculated as a percent of the radioactivity specifically bound in the absence of a competing ligand or GTPγS.

The target is the same in assay [12]. The assay is described as follows: competition vs 125I-PTH(1-34) + GTPgammaS, COS-7 membranes hPTHR (R0). How it is done:
as §3

Square brackets hold non-standard residues; d marks the D form. Ends that are not written are not given here. hArg = N=C(N)NCCCC[C@H](N)C(=O)O; Nle = CCCC[C@H](N)C(=O)O; Aib = CC(C)(N)C(=O)O

B1: E18,A22,K27-PTHrP(1-31)NH (peptide)
peptide: AVSEHQLLHDKGKSIQDERRRAFLHHKIAEI-NH2
notes: Name as printed (K27)
Consider B1, for which the IC50 – broadly, the concentration at which inhibition is half-maximal – in [1] stood at 0.23 nM; in assay [2], 54.8 nM.

B2: [Ile^5,Tyr^36]hPTHrP(1-36)NH2 (peptide)
peptide: AVSEIQLLHDKGKSIQDLRRRFFLHHLIAEIHTAEY-NH2
As for B2, the “t1/2 of the FRET response” value in the assay with PTHR-CFPIC3/YFPCT fell in the range of 0.5 to 0.7 s.

B3: ^125I-[Ile^5,Tyr^36]PTHrP(1-36)NH2 (peptide)
peptide: AVSEIQLLHDKGKSIQDLRRRFFLHHLIAEIHTAEY-NH2
modifications: also: 125I label, site not given here
notes: Radioligand
In the case of B3, the binding result in assay [3] is “binds”.

B4: ^125I-[Aib^1,3,M]PTH(1-15)NH2 (peptide)
peptide: [Aib]V[Aib]EIQL[Nle]HQ[hArg]AKWY-NH2
modifications: also: 125I label, site not given here
notes: Radioligand; tracer of the RG assay
B4: the binding result in [3] was “binds”.

B5: [Nle^8,21,Tyr^34]rPTH(1-34)NH2 (peptide)
peptide: AVSEIQLXHNLGKHLASVERXQWLRKKLQDVHNY
modifications: Nle at 8 and 21; C-terminal amide
notes: also called [Nle^8,21,Tyr^34]rat(r)PTH(1-34)NH2; control PTH(1-34) analog
Regarding B5, in assay [4], the “delayed cAMP response 60 minutes after wash-out, % of maximum, HKRK-B64 cells” value stood at 47% and the “t1/2 of decay of the cAMP signaling response, HKRK-B7 cells” value is approximately 2 h. Besides, in [5], the “IP in COS-7/hPTHR cells, EC50” value stood at 18 nM; the “IP in COS-7/hPTHR cells, Emax” value amounted to 2410 cpm/well; the “cAMP in HKRK-B64 cells, EC50” value amounted to 5.1 nM; the “cAMP in HKRK-B64 cells, Emax” value stood at 55 picomole/well. Also, the “R0:RG” value in assay [6] stood at 5.

B6: ^125I-[Nle^8,21,Tyr^34]rPTH(1-34)NH2 (peptide)
peptide: AVSEIQLXHNLGKHLASVERXQWLRKKLQDVHNY
modifications: 125I label (oxidative chloramine-T procedure); Nle at 8 and 21; C-terminal amide
notes: Radioligand; tracer of the R0 assay
Consider B6, for which, in assay [3], the binding result is “binds”.

B7: [Aib^1,3,Gln^10,Har^11,Ala^12,Trp^14]rPTH(1-14)NH2 (peptide)
peptide: [Aib]V[Aib]EIQLMHQ[hArg]AKW-NH2
modifications: N-terminus assumed
SMILES: CC[C@H](C)[C@H](NC(=O)[C@H](CCC(=O)O)NC(=O)C(C)(C)NC(=O)[C@@H](NC(=O)C(C)(C)N)C(C)C)C(=O)N[C@@H](CCC(N)=O)C(=O)N[C@@H](CC(C)C)C(=O)N[C@@H](CCSC)C(=O)N[C@@H](Cc1c[nH]cn1)C(=O)N[C@@H](CCC(N)=O)C(=O)N[C@@H](CCCCNC(=N)N)C(=O)N[C@@H](C)C(=O)N[C@@H](CCCCN)C(=O)N[C@@H](Cc1c[nH]c2ccccc12)C(N)=O
For B7, in the assay with PTHR-CFPIC3/YFPCT, the “t1/2 of the FRET response” value came out at 0.5 s.

B8: hPTH(1-34) (peptide)
peptide: SVSEIQLMHNLGKHLNSMERVEWLRKKLQDVHNF
As to B8, the “t1/2 of the reduction in FRET signal” value in the assay with PTHR-CFPIC3/YFPCT worked out at 0.7 s.

B9: [A1,3,23]-PTH(1-34)OH (peptide)
peptide: AVAEIQLMHNLGKHLNSMERVEALRKKLQDVHNF-OH
notes: also called [A^1,A^3,A^23]-PTH(1-34)OH; [A1,3,23]-hPTH(1-34)
Consider B9, for which the R0/RG ratio in assay [7] is 4290. For the same molecule, the IC50 in assay [8] turned out to be 1840 nM. In [9], this molecule came in with an IC50 of 0.43 nM. Further, in [10], the “cAMP in HKRK-B7 cells, EC50” value was determined as 1.93 nM and the “cAMP in HKRK-B7 cells, Max” value was 66.6 pm/well.

B10: [His^5]hPTH(1-34)NH2 (peptide)
peptide: SVSEHQLMHNLGKHLNSMERVEWLRKKLQDVHNF-NH2
With B10, the IC50 in [11] was 0.76 nM; in assay [12], 122 nM. Further, the “delayed cAMP response 60 minutes after wash-out, % of maximum, HKRK-B64 cells” value in assay [4] was found to be 34%. For the same molecule, the “R0:RG” value in assay [6] turned out to be 160.
